Positions count from the first letter of the chain named. Names may count otherwise.
T1: GrxD (recombinant full-length GrxD after removal of the His-tag by TEV protease) (A. fumigatus, UniProt Q4X024 1-271)
T1 construct: GrxD of Aspergillus fumigatus (Afu2g14960), full length, from a synthetic gene; Residues of the TEV site may be left at the C-terminus after cleavage (surmise); source: E. coli BL21(DE3), co-expressed with HapX^161-491, purified (Ni-Sepharose, TEV protease, Superdex 200 SEC); not shown: His6, C-terminal, cleaved
T1 sequence (looked up): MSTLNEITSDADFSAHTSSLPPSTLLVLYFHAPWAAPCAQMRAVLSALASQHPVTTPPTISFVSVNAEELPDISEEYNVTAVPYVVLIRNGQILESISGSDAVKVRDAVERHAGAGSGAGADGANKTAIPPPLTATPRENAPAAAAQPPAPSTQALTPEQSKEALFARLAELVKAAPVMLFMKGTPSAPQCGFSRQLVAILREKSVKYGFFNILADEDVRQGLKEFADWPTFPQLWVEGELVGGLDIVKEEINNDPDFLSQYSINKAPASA

B1: HapX^161-491 (A. fumigatus HapX C-terminus with all four cysteine-rich regions) (domain or fragment, UniProt Q4WER3 161-491, looked up)
chain: KGLAPLTTSTPQARSSDRPDNGDASNNDSGEGREEVPLGCNDCSTSHCQCIEDAFTMPGVVAQEQSRRLDTTKPGLSEPQIKPDPEEMEIDFTSRFAATQQQDQSPTSVSSPAVDPCGFCSDGTPCICAEMAAQEEQRPRRNSFENNRLAPIQNLSQFTPPPSDGDVRSDVTLPPISQATNPCANGPGTCAQCLADPRRTLFCKTLAASRSPSAAPSGCCGGKGADGGCCQSRNTNVSRGRSGSNNNTSSGSSAAPSLTLSCADAYTTLSRHPNFSRATDELSTWLPKLHTLPKPRDFPLTDRGVPRAALEVEAASVMGVLRYFDRRFADK
notes: HapX of Aspergillus fumigatus (Afu5g03920), amino acids 161-491 (cysteine-rich C-terminus), from a synthetic gene; also called AfuHapX^161-491; pnCS-HapX161-491; source: E. coli BL21(DE3), untagged, bicistronically co-expressed with GrxD-His6; in crude cell extract, then co-purified (Ni-Sepharose, SEC)
B2: GrxD^C191A (recombinant GrxD with cysteine 191 mutated to alanine) (natural protein)
chain: T1 sequence (looked up) with C191A
notes: GrxD of Aspergillus fumigatus (Afu2g14960), full length, C191 of the CGFS motif mutated to A; source: E. coli BL21(DE3), co-produced with HapX^161-491, purified (Ni-chelate, TEV protease, SEC); not shown: His6, C-terminal, cleaved

Key:
[1] = target: T1, GrxD (recombinant full-length GrxD …); assay: SEC; Ni-chelate eluate digested with TEV protease and loaded on Superdex 200 prep grade 26/60 in 25 mM HEPES pH 7.5, 150 mM NaCl, 2 mM glutathione; apparent masses from protein calibration standards; fractions checked by SDS-PAGE; conditions: both partners purified
[2] = target: B1; assay: as above; conditions: both partners purified

Binder	stoichiometry N [1]	binding result [2]
B1	~1 HapX^161-491 per GrxD (2:2)	–
B2	–	binds
